From article PMC3347318

Target: Sudan virus Boniface (SUDV-Bon) glycoprotein GP1,2, mucin-like domain and transmembrane domain delet (Sudan virus, variant Boniface) (UniProt Q66814)
Test: crystal structure

Sudan virus Boniface (SUDV-Bon) glycoprotein GP1,2, mucin-like domain and transmembrane domain delet (from UniProt Q66814) (complex)
stoichiometry N: 3
